PMC2897766

Columns and labels:
[1] = target: Ire1^bipless, GFP- and mCherry-tagged copies (FRET pair) (yeast) (UniProt P32361); assay: FRET or BRET; microscopy-based FRET (spinning disc confocal) between GFP- and mCherry-tagged copies co-expressed in live yeast cells; untreated cells (no DTT)
[2] = target: Ire1^bipless, GFP- and mCherry-tagged copies (FRET pair) (yeast) (UniProt P32361); assay: FRET or BRET; microscopy-based FRET (spinning disc confocal) between GFP- and mCherry-tagged copies co-expressed in live yeast cells; cells treated with 5 mM DTT for 4 h (for Ire1^bipless only 'in the presence of DTT' is printed)

- FRET signal [1]: 0.17 a.u.
- FRET signal [2]: 0.71 a.u.
Substance: Ire1^bipless, GFP- and mCherry-tagged copies (FRET pair) (from UniProt P32361 19-474; P32361 527-1115) (natural protein)
